For assay [1], the target named is T1, S1 subunit polypeptide of SARS-CoV-2 spike protein (isolate 2019-nCoV, WIV4) (SARS-CoV-2 (isolate 2019-nCoV, WIV4), UniProt P0DTC2 16-685). Briefly: phage ELISA on SARS-CoV-2 spike S1 (FIG. 1). (ELISA stands for enzyme-linked immunosorbent assay.)
In assay [2] the target is T1, S1 subunit polypeptide of SARS-CoV-2 ….

B1: anti-S1 (SARS-CoV-2) scFv clone #09 (scFv)
scFv: NFMLTQPHSVSESPGKTVSISCTGSSGSIASNYVQWYQQRPGSAPTTVIYEDKERPSGVPNRFSGSIDRSSNSASLTISGLKTEDEADYYCQSYDDGNVVFGGGTKLTVLGSRGGGGSGGGGSGGGGSLEMAEVQLVESGAEVKKPGASVKVSCKASGYTFTSYGISWVRQAPGQGLEWMGWISAYNGNTNYAQKFQDRVTLTTDTSTNTAYMLLRSLRSDDTAVYYCARTWYSYHYDIWGQGTLVTVSSTSGQAGQ
notes: also called phage clone #09
In the case of B1, in assay [1], the binding result is on record as “binds”.

B2: anti-S1 (SARS-CoV-2) scFv clone #26 (scFv)
scFv: QAVLTQAPSASGTLGQQVTISCSGTTSNIGRNTVNWYQHLPGTAPKLLIFVSNQRPSGVPDRFSGSKSGTSASLVISGLQSEDEADYYCGAWDDSLDGMLFGGGTKLTVLGSRGGGGSGGGGSGGGGSLEMAQVQLVQSGAEVKKPGASVKVSCKASGYTFTSYGISWVRQAPGQGLEWMGWISAYNGNTNYAQKLQGRVTMTTDTSTSTAYMELRSLRSDDTAVYYCARGYYGDLDPWGQGTLVTVSSTSGQAGQ
The IC50 is the concentration that gives 50% inhibition. A low value points to inhibition by little substance. The molecule B2 gave a half-inhibitory concentration (IC50) in assay [2] of 1.33 nM.

B3: anti-S1 (SARS-CoV-2) scFv clone #30 (scFv)
scFv: QSALTQPPSASGSPGQSVTISCTGTSSDVGGYDYVSWYQQHPGKAPKLMIYEVSKRPSGVSNRFSGSKSGNTASLTISGLQAEDEADYYCSSYTSSSTFPYVFGTGTKVTVLGSRGGGGSGGGGSGGGGSLEMAEVQLVESGGGLEQPGGSLRLSCAASGFTFSSYAMSWVRQAPGKGLEWVSAISASGNSTFYADSVKGRFTISRDNSKHTLDLQMNSLRADDTAVYYCARNSDVWGQGTLVTVSSTSGQAGQ
notes: also called phage clone #30
On to B3, for which the binding result in assay [1] is on record as “binds”.

B4: anti-S1 (SARS-CoV-2) scFv clone #13 (scFv)
scFv: QSVLTQPPSASGTPGQRVTISCSGSSSNIGSNYVYWYQQLPGTAPKLLIYRNNQRPSGVPDRFSGSKSGTSASLAISGLRSEDEADYYCAAWDDSLSGPNYVFGTGTKVTVLGSRGGGGSGGGGSGGGGSLEMAQVQLVQSGAEVKKPGSSVKVSCKASGGTFSSYAISWVRQAPGQGLEWMGWISGYNGNTNYAQKLQGRVTMTTDTSTSTAYMELRSLRSDDTAVYYCARTGWSKGEKVTTWGEWFYVDYWGQGTLVTVSSTSGQAGQ
notes: also called phage clone #13
As for B4, the binding result in assay [1] is on record as “binds”.

B5: anti-S1 (SARS-CoV-2) scFv clone #20 (scFv)
scFv: SYVLTQPPSASGTPGQRVTISCSGSSSNIGSNTVNWYQQLPGTAPKLLIYSNNQRPSGVPDRFSASKSGTSASLAISGFQSEDEADYYCAAWDDSLDGYVFGTGTKVTVLGSRGGGGSGGGGSGGGGSLEMAEVQLVQSGAEVKKPGESLKISCKGSGYSFPSYWIGWVRQMPGKGLEWMGIIYPGDSDTRYSPSFQGQVTISADKSISTAYLQWSSLKASDTAMYYCARGSYTYMGGSYDYWGQGTLVTVSSTSGQAGQ
notes: also called phage clone #20
For B5, the binding result in assay [1] was “binds”.

B6: anti-S1 (SARS-CoV-2) scFv clone #15 (scFv)
scFv: QSVLTQPPSVSEAPRQRVTISCSGSSSNIGNNAVNWYQQLPGKAPKLLIYFNDVQSSGVSDRFSGSKSGTSASLAISGLQSEDEADYYCAAWDDSLNAVLFGGGTKLTVLGSRGGGGSGGGGSGGGGSLEMAEVQLVQSGAEVKKPGASVKVSCKASGYTFTGYYMHWVRQAPGQGLEWMGRINPNSGGTDYARKFRGRVTMTRDTSISTAYMELSRLTSDDTAMYYCARGYGDDWGQGTLVTVSSTSGQAGQ
notes: also called phage clone #15
Turning to B6, the binding result in assay [1] is given as “binds”.

B7: anti-S1 (SARS-CoV-2) scFv clone #19 (scFv)
scFv: QSALTQPASVSGSPGQSITISCTGTSSDVGGYNYVSWYQQHPGKVPKLMIYEVSNRPSGVSNRFSGSKSGNTASLTISGLQAEDEADYYCSSYTSGDTLVFGGGTKVTVLGSRGGGGSGGGGSGGGGSLEMAELQLVESGGGVVQPGRSPRLSCAASGFTFSNYPMHWVRQAPGKGLEWVAVISYDGNHKYYADSLEGRFSISRDNSKNTLYLQMNSLTAADTAVYYCARGGGMGGLDSWGQGTLVTVSSTSGQAGQ
notes: also called phage clone #19
B7: the binding result in assay [1] was “binds”.

The values are drawn from patent US20220119501A1 (INVISISHIELD TECHNOLOGIES, published 2022).
